Measured values from PMC6008332, “Nuclear PTEN safeguards pre-mRNA splicing to link Golgi apparatus for its tumor suppressive role” (Nature Communications, 2018).

T1: GST-tagged SF3B4 on the human proteome microarray (human, UniProt Q15427 1-424)
T1 construct: SF3B4 spotted on the human proteome microarray; also called SF3B4 (HPM); source: bought: human proteome microarray (ProtoArray Human Protein Microarray, Wayen Biotechnologies); not shown: GST, N-terminal, kept
T1 sequence (looked up): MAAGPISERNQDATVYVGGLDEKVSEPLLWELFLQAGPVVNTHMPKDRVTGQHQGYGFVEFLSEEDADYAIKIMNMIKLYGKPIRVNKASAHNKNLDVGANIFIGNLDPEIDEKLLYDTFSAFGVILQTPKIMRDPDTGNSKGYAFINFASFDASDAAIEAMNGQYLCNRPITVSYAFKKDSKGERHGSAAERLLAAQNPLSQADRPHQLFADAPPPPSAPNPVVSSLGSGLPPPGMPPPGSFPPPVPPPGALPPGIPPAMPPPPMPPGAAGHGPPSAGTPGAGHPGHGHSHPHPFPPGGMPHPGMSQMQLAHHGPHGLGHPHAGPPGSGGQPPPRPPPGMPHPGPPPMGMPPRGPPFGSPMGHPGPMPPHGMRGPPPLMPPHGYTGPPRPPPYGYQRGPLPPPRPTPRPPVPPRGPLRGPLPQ


Columns and labels:
Conditions in all cases: both partners purified
His-tagged U2AF2 = target: T2, His-tagged U2AF2 (UniProt P26368 1-475); assay: pull-down; 15 μg His-tagged U2AF2 mixed with 4 μg GST or GST-PTEN bound to glutathione-sepharose beads in 0.5 ml binding buffer, overnight at 4 °C; immunoblot for His and GST
T2 construct: Recombinant full-length U2AF2; also called His-U2AF2; source: E. coli (pET-28a), purified (nickel chelating, ion exchange, gel filtration)

[1] = target: T1, GST-tagged SF3B4 on the human proteome …; assay: peptide or protein array; human proteome microarray of 20,240 N-terminally GST-tagged proteins probed with 5 μg/5 ml Biotin-labeled His-PTEN, 1 h room temperature; Cy5-conjugated streptavidin; cutoff SNR ≥3 and fold change ≥5
[2] = target: T3, GST-tagged USP7 (HAUSP7) on the human proteome microarray (human, UniProt Q93009 1-1102); assay: as above
T3 construct: USP7 spotted on the human proteome microarray; source: bought: human proteome microarray (ProtoArray Human Protein Microarray, Wayen Biotechnologies); not shown: GST, N-terminal, kept

[3] = target: T4, GST-tagged HNRNPK on the human proteome microarray (human, UniProt P61978 1-463); assay: as above
T4 construct: HNRNPK spotted on the human proteome microarray; also called HNRNPK (HPM); source: bought: human proteome microarray (ProtoArray Human Protein Microarray, Wayen Biotechnologies); not shown: GST, N-terminal, kept

[4] = target: T5, GST-tagged APC3 (CDC27) on the human proteome microarray (human, UniProt P30260 1-824); assay: as above
T5 construct: APC3 (CDC27) spotted on the human proteome microarray; source: bought: human proteome microarray (ProtoArray Human Protein Microarray, Wayen Biotechnologies); not shown: GST, N-terminal, kept

[5] = target: T6, GST-tagged U2AF2 on the human proteome microarray (human, UniProt P26368 1-475); assay: as above
T6 construct: U2AF2 spotted on the human proteome microarray; also called U2AF2 (HPM); source: bought: human proteome microarray (ProtoArray Human Protein Microarray, Wayen Biotechnologies); not shown: GST, N-terminal, kept

[6] = target: T7, GST-tagged HNRNPU on the human proteome microarray (human, UniProt Q00839 1-825); assay: as above
T7 construct: HNRNPU spotted on the human proteome microarray; also called HNRNPU (HPM); source: bought: human proteome microarray (ProtoArray Human Protein Microarray, Wayen Biotechnologies); not shown: GST, N-terminal, kept

Row | binding result (His-tagged U2AF2) | binding result [1] | binding result [2] | binding result [3] | binding result [4] | binding result [5] | binding result [6] | Binder
1 | binds |  |  |  |  |  |  | GST-tagged PTEN (natural protein, PTEN CDS inserted into the pEGX-4T-3 vector (so in the source); also called GST-PTEN) not shown
2 |  | binds | binds | binds | binds | binds | binds | Biotin-labeled His-PTEN (natural protein, biotin (sites not given), Recombinant full-length PTEN; also called biotinylated PTEN protein; PTEN−biotin conjugates; source: E. coli (pET-28a), purified (nickel chelating, ion exchange, gel filtration), labeled with biotin) not shown
